Test [1] addresses T1, Yah1-GST fusion protein (S. cerevisiae, UniProt Q12184 17-172).
T1 chain: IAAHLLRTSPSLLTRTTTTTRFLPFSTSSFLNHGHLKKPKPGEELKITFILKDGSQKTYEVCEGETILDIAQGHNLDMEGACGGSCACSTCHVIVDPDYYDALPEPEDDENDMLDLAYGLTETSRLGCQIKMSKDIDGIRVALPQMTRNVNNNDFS
Briefly: BLI; anaerobic, reduced Yah1; KD1 of 2:1 fit (61%). (BLI is a label-free optical method that tracks binding on a fibre tip over time.)

The target of test [2] is T1, Yah1-GST fusion protein. Put plainly: BLI; anaerobic, reduced Yah1 (Fig. 6C); KD2 of 2:1 fit (60%), second site.
Test [3] concerns the target T1, Yah1-GST fusion protein. Briefly: BLI; anaerobic, reduced Yah1; kd1 of 2:1 fit.
Test [4] has as its target T1, Yah1-GST fusion protein. Put plainly: BLI; KD2 of 2:1 heterogeneous ligand fit (54%), second site.
For test [5], the target named is T1, Yah1-GST fusion protein. Briefly: BLI; anaerobic, reduced Yah1; kd2 of 2:1 fit, second site.
The target in test [6] is T1, Yah1-GST fusion protein. Briefly: BLI; kd2 of 2:1 fit, second site.
Test [7] has as its target T1, Yah1-GST fusion protein. Put plainly: BLI; anaerobic, reduced Yah1; KD2 of 2:1 fit (39%), second site.
Test [8] concerns the target T1, Yah1-GST fusion protein. Briefly: BLI; anaerobic, reduced Yah1 (Fig. 6C); kd1 of 2:1 fit.
The target of test [9] is T1, Yah1-GST fusion protein. Put plainly: BLI; KD1 of 2:1 heterogeneous ligand fit (46%).
For test [10], the target named is T1, Yah1-GST fusion protein. Briefly: BLI; kd1 of 2:1 fit.
Test [11] addresses T1, Yah1-GST fusion protein. Briefly: BLI; anaerobic, reduced Yah1 (Fig. 6C); KD1 of 2:1 fit (40%).
The target of test [12] is T1, Yah1-GST fusion protein. Briefly: BLI; anaerobic, reduced Yah1 (Fig. 6C); kd2 of 2:1 fit, second site.

The values below come from paper PMC8888459 (2022).

B1: NIA complex (Nfs1–Isd11–ACPEc) (complex)
chain 1: PAAGVKLDDNFSLETHTDIQAAAKAQASARASASGTTPDAVVASGSTAMSHAYQENTGFGTRPIYLDMQATTPTDPRVLDTMLKFYTGLYGNPHSNTHSYGWETNTAVENARAHVAKMINADPKEIIFTSGATESNNMVLKGVPRFYKKTKKHIITTRTEHKCVLEAARAMMKEGFEVTFLNVDDQGLIDLKELEDAIRPDTCLVSVMAVNNEIGVIQPIKEIGAICRKNKIYFHTDAAQAYGKIHIDVNEMNIDLLSISSHKIYGPKGIGAIYVRRRPRVRLEPLLSGGGQERGLRSGTLAPPLVAGFGEAARLMKKEFDNDQAHIKRLSDKLVKGLLSAEHTTLNGSPDHRYPGCVNVSFAYVEGESLLMALRDIALSSGSACTSASLEPSYVLHALGKDDALAHSSIRFGIGRFSTEEEVDYVVKAVSDRVKFLRELSPLWEMVQEGIDLNSIKWSGH
chain 2: MPGFTAPTRRQVLSLYKEFIKNANQFNNYNFREYFLSKTRTTFRKNMNQQDPKVLMNLFKEAKNDLGVLKRQSVISQMYTFDRLVVEPLQGRKH
chain 3: MSTIEERVKKIIGEQLGVKQEEVTNNASFVEDLGADSLDTVELVMALEEEFDTEIPDEEAEKITTVQAAIDYINGHQA
Consider B1, for which the Kd in the test with Yah1-GST fusion protein [1] was 0.82 nM; with Yah1-GST fusion protein [2] it was 65.8 nM; in the test with Yah1-GST fusion protein [4], 280 nM; with Yah1-GST fusion protein [7], 114 nM; with Yah1-GST fusion protein [9], 0.0966 nM; with Yah1-GST fusion protein [11] it was 0.446 nM. The koff was 3.88e-07 s⁻¹ in the test with Yah1-GST fusion protein [3]; 0.00204 s⁻¹ with Yah1-GST fusion protein [5]; 0.0267 s⁻¹ with Yah1-GST fusion protein [6]; 4.91e-07 s⁻¹ with Yah1-GST fusion protein [8]; 3.54e-07 s⁻¹ with Yah1-GST fusion protein [10]; 0.00248 s⁻¹ in the test with Yah1-GST fusion protein [12].

The Kd is the concentration at which binding is half-saturated. Higher therefore signals lower affinity. A word on the koff: it is the first-order rate constant of dissociation. Higher therefore signals a short-lived complex.
